According to the DeepSol protein solubility set:

Assay: soluble on expression in E. coli; label from the status in PepcDB or PDB records
With “GPGSMSTTAYALVAEEKQYPLQVGKNVVGRSSVPVEGVSFINLESPLAAISRMQAFVDIGANGDAWISDCNSTNGTFLSISPGPGIRLEANRYYQLSPGCRIVFGDVVCTFETLSEAPPTPEHPAHLLTSHSRPTRKTESLGVVDALADSTATTTPARHPSKQLNAHRSNVPYLDESGSLLREPAASRETVATTKKTPRRERREPTAPSPPLKRAKVESAAPSSFLKVKTAATAKATTPARALAARPHVCLTGMDSDERVAVTKRVRELKGRVVDDITKANLLVVATPPVRTPKFIAAVARGIPVVSVDYICNRRAELDDARHHIVGLKTDQHTYTAAELKKVIYRKDASPLLQGVSFNIAALSSKTKSVAAEIISSSGGEVVSTKKGGGTALTDAQLDKLYDSILRGKVPDVL” the “soluble on expression in E. coli” value was “not soluble”. In the case of “MGSDKIHHHHHHMEQTGYGEHIAHTVRNVPYETAIQTEDIAGELAKKFALPYNHAKTITNVKLKRMADKGEIERLQKGIYCHVKQTFFGKVTPTADQVLLKTLMVQNGAKIGYESGASLLNKLGLTTLIPRDIEITTNRYGAKLPEGCHIKLRKPPMPVTDENWKYLQFIDVLMYLPDAHTDAEKPEVLLRQHAKEQQLDYLTLIFTARKYYPQKIVLPLIDLLMEVENETASR”, the “soluble on expression in E. coli” value is reported as “not soluble”. In the case of “STTEIGWWKLTFLRKKKSTPKVLYEIPDTYAQTEGDAEPPRPDAGGPNSDFNTRLEKIVDKSTKGKHVKVSNSGRFKEKKKVRATLAENPNLFDDHEEGRSSK”, the “soluble on expression in E. coli” value is reported as “soluble”. In the case of “MGSDKIHHHHHHMFVLKNVKYKDILNIEELHIPARKITVITGKSGTGKTTLLKMLNKLISPDSGEIFFKGTPLTEIDSVELRRKVVMLPQFPVVFPGNVKENLLMGLKFSGKKIPHDEELRKILKFVMLEKDLNDDPEKFSGGEKQRLALARVLLMDPEVLLLDEPTSSLDEKTGIEIIKKVSNFAKSRGKTLVMVTHNPELRKFADVLIELKNGRVL”, the “soluble on expression in E. coli” value is reported as “not soluble”. With “GMQTTEIDLRLTEVSQQLTMVLVPGLRDSDDEHWQSHWERRFPHWQRIRQREWYQADLDRWVLAIRRELSVCTQPVILIGHSFGALAACHVVQQGQEGIAGVMLVAPAEPMRFEIDDRIQASPLSVPTLTFASHNDPLMSFTRAQYWAQAWDSELVDVGEAGHINAEAGFGPWEYGLKRLAEFSEILIPNR” the “soluble on expression in E. coli” value was “soluble”. In the case of “QGRYTTDDGYIFNASDIIEDTGDAYIVPHGDHYHYIPKNELSASELAAAEAFLSG”, the “soluble on expression in E. coli” value is reported as “soluble”. For “MTQTYNADAIEVLTGLEPVRRRPGMYTDTTRPNHLGQEVIDNSVDEALAGHAKRVDVILHADQSLEVIDDGRGMPVDIHPEEGVPAVELILCISVVNALSKRVEVNVRRDGQVYNIAFENGEKVQDLQVVGTCGKRNTGTSVHFWPDETFFDSPRFSVSRLTHVLKAKAVLCPGVEITFKDEINNTEQRWCYQD”, the “soluble on expression in E. coli” value was “soluble”. With “MGSDKIHHHHHHMVAATSQNTFDSPRSPLYNFTMDIRPLSDVAGVILVGGRSRRMGRDKALIPLGGKPLVERVIDAFRPLFERILLVGDRGERFASYGLPVFPDIHPGSALGGLYTGLVRAGTPHVFVSACDVPWPDPRVIARLCSLREGFDVVVPRTVGGSEPLFAVYGTGCLPAMERMLREGNYRIYDFYPEVRTRYVEQAELADLVTPARTFVNVNTPEEFETIRNREEGMAIKAVSFVAKSGTGKTTLLEKVIAELKGRGYRIGVIKHDAHRFDIDHPGKDSHRLAAAGADTMLIASPEKLALVKKYDESPPLDELLATYFGDVDIVLTEGFKKSSLPKIEVHRMERSATLLCRGEEHDPTLVAVASDAALALDVPVFDLNNPAQVADFVERTFLAAGAA” the “soluble on expression in E. coli” value was “not soluble”. In the case of “MTKSLPGVADLRLGANHPRMWTRRVQGTVVNVGVKVLPWIPTPAKRILSAGRSVIIDGNTLDPTLQLMLSTSRIFGVDGLAVDDDIVASRAHMRAICEAMPGPQIHVDVTDLSIPGPAGEIPARHYRPSGGGATPLLVFYHGGGWTLGDLDTHDALCRLTCRDADIQVLSIDYRLAPEHPAPAAVEDAYAAFVWAHEHASDEFGALPGRVAVGGDSAGGNLSAVVCQLARDKARYEGGPTPVLQWLLYPRTDFTAQTRSMGLFGNGFLLTKRDIDWFHTQYLRDSDVDPADPRLSPLLAESLSGLAPALIAVAGFDPLRDEGESYAKALRAAGTAVDLRYLGSLTHGFLNLFQLGGGSAAGTNELISALRAHLSRV”, the “soluble on expression in E. coli” value is reported as “soluble”. In the case of “AIAADRTVPHAYPMSMDYEMCTPPRIYDQNFAEALSPKELLAPVLYHGYYIRPRINKQLERGFSQVESEDDWYRVLLDVCQFTPDEISVRTVDNLLEVSARHAQRMDQHGFVSREFTRTYILPMGVDPLLVQVSLSHDGILCIQAPRKTEDLEPQINQLKIKVEKKESTSK”, the “soluble on expression in E. coli” value is reported as “soluble”. For “MSLTVRLRPHHLLCMLTYIGKGYTSGFVENYDRVAFRLNAGEDIELVEGADDVCEGLLCESHAHCFNDGIVQRDETARLSVSTLLGETLIAGKRLRVTPDFLAKMRLAFAAGDIRQACRGCQWIKLCDRIAASGFAGVKIGVPSQVVPKDATRHPMLRPKYGPSGRKLEGHHHHHH”, the “soluble on expression in E. coli” value was “not soluble”. For “MSPSSATPARCSIARTLELLGDKWTLLIVRDAFWGHSRFSEFTRSLGVASDVLTARLAMLVDEGILERRAYRQEGSRERLEYVLTEKGKQLHVVIGALGQFGRDHLPRPGSTSPEYSDETTGEAVSLAFVTDDGRRVSASTLHVQQGTPAPAADPQG”, the “soluble on expression in E. coli” value was “not soluble”. For “MGSSHHHHHHMKKARMTVDKDYKIAEIDKRIYGSFVEHLGRAVYDGLYQPGNSKSDEDGFRKDVIELVKELNVPIIRYPGGNFVSNYFWEDGVGPVEDRPRRLDLAWKSIEPNQVGINEFAKWCKKVNAEIMMAVNLGTRGISDACNLLEYCNHPGGSKYSDMRIKHGVKEPHNIKVWCLGNAMDGPWQVGHKTMDEYGRIAEETARAMKMIDPSIELVACGSSSKDMPTFPQWEATVLDYAYDYVDYISLHQYYGNKENDTADFLAKSDDLDDFIRSVIATCDYIKAKKRSKKDIYLSFDEWNVWYHSNNEDANIMQNEPWRIAPPLLEDIYTFEDALLVGLMLITLMKHADRIKIACLAQLINVIAPIVTERNGGAAWRQTIFYPFMHASKYGRGIVLQPVINSPLHDTSKHEDVTDIESVAIYNEEKEEVTIFAVNRNIHEDIVLVSDVRGMKDYRLLEHIVLEHQDLKIRNSVNGEEVYPKNSDKSSFDDGILTSMLRRASWNVIRIGK”, the “soluble on expression in E. coli” value was “soluble”. With “MGSDKIHHHHHHMAGMQIQGMQIESIDIQNYRLFKQASLNKLSRLAVFVGENGAGKSTIFDVFSFLKDSLAQNAAKAVARRGGFKELVSRGTEGPISITLKFRETGGRLATYELSVAFEGGRVVVDREVLKFRRGQRGQPWHFVDFSRGRGTAVTNEAMYGKPGVKVERKEYILDEPTVLAIKGLGQFKEFRVVSEFRNLIENWHITDFHIADARPSAEEGYAEHLSTRGDNVAQVAQFLYDHHPDRFNNILDAMKRRIPGVEKVEAKPTEDGRLVLRFQDGAFKDPFIARYVSDGTIKMFAYLVLLHDPNPFPLLAVEEPENQLYPELLQELAEEFRDYARRGGQVFISTHSPEFMNGLYLDEIYWLSKKDGYSTIYRGADSEVLKRLVAEGDHPGALWRQGVFKGAW” the “soluble on expression in E. coli” value was “not soluble”. For “MTAQDYLNGKLAAANGPLADDWKNLKELWEKKLWHQLTVLTRSLVKKPQFVASTDMHEFYRLFVAEWELRVNPLQLVEICISIAQNIATKDKQKSMEFLSKIGNVINKDKIAVARLHTGEIEARLENKDKNGQIIDLKSIRTQIDSTQHEVDSLVGVTEVHAPFYRVSSLYLREVGDFAGYYREALRYLGVEDANNLTTEQKQVHAVLLGFAALLGENVHNFGELLAHPILKSLEGTRERWIVDVLLAFNSGDLTRFFSLEGDWGGWDDLKKQKDFLTAKIRLMAVMELAVSRPTKARSVSFKEIATKCQIPFDEVEFLVMKALSKDLIRGDINQVEQVVYVTWVQPRVLDNPQIMQMATRISAWRNDVNSMEGIVSKEAREILTQN”, the “soluble on expression in E. coli” value was “not soluble”. In the case of “SGMEELEQGLLMQPWAWLQLAENSLLAKVFITKQGYALLVSDLQQVWHEQVDTSVVSQRAKELNKRLTAPPAAFLCHLDNLLRPLLKDAAHPSEATFSCDCVADALILRVRSELSGLPFYWNFHCMLASPSLVSQHLIRPLMGMSLALQCQVRELATLLHMKDLEIQDYQESGATLIRDRLKTEPFEENSFLEQFMIEKLPEACSIGDGKPFVMNLQDLYMAVTTQEVQVGQKHQ”, the “soluble on expression in E. coli” value is reported as “soluble”. For “MGSDKIHHHHHHMYVAVKGGEKAIEAAHQLQSCRRRGCTDIPELDCSQIEQQLNLAVDRVMTEGNIYDRQLAALAIKQASGDLVESIFLLRAYRSTLPRWGISQPLNTPDMRLERRVSAIFKDLPGGQLLGPTYDYTHRLLDFSLLADGEDPVAPQPDAVYEDEGTREHIPHAFQFLAQQHLVPERNISDDSNPSDITMEPPSYPGTRAARLQQLFRGDEGFLLSLGYSTQRGYGRNHPFVSEIRTGYITVSIVAEEVGFAIDIGEILLTECETVNGFVKPANDAPHFTRGYGLAFGRSERKAITVALADRALQAADYQEEVRGPAQDEEFVLSHADNVEAAGFVSHLKLPHYVDFQSELELLKRLREEYLASVPRSKA”, the “soluble on expression in E. coli” value was “not soluble”. For “RWITATDWASLPQTADTPALILFHGLEGGSASRYAQSIAHYFRARGWIVVIAHFRGCSGVPNRLARAYYSGDSAEVGFMLDTVRARIPHARWHAVGVSLGGNALLKYLGEHHDEASWLAAAAGVSVPLDLVAGGKALCTGFIARRIYTAYFLKTMRRKVLEKAKRFPGAIDVIRIAHARDLRDFDDAYTARMHGYRNALDYWTRASSKPWLAHIKTPTLVLNARNDPFLPESALPIPAECSDSVLLHQPAEGGHAGFPTGPFPAHLNWLPQRLG”, the “soluble on expression in E. coli” value was “not soluble”. With “MGSLDHGAKEQLQSEEFGERKQFEDKELGAKKDEALHVLEGLITRSKTKLLNQAITTLLQKIEGSLKLEACPTTLVVIQAV” the “soluble on expression in E. coli” value was “not soluble”. In the case of “MSLSDLFTTIKGQVTGKNVRIVLPEGTDERIVGAAARLQKENIVKPILLGNKAEIEAKAKEIGVSVEGIAIHEPATDPLFDELVAAFVERRKGKATEEAARKMLVDPNYFGTMLVYTGKAEGLVSGAAHSTGDTVRPALQIIKTKPGVSKVAGAMIMVRGEERYLFSDVAINIAPVAADLAENAIVSAETAEIFGIDPRVAMLSFSTKGSAKSDETEKVVEATALAKEKAPELTLDGEFQFDAAFVPTVAEKKAPGSVIKGDANVFIFPSLEAGNIGYKIAQRLGNFEAVGPILQGLNAPVNDLSRGCNTDDVYNLTLITAAQAVNKEGHHHHHH”, the “soluble on expression in E. coli” value is reported as “soluble”. In the case of “MATDTSSPKHEPIIIAVEPYGGSVRDHSPLLPLVYWDDAAVTRGDGVFETILFRHGRACNLERHAQRFRESAVLLDLPEPRLDHWVHATSMAVEKWFQQSESDAKCVWTYTRGRASTGHPSAWLTITAVPDCVIEQREQGVRVMTTPRGYHIDTSNSVPWVVIGAKTLNYASNMAALRWAKKEGFDDVIFTEQDRILEGATSTVVTFRGNKIRSPFPGGDVLPGTTQAALFDYATNLGWNCKLKDMDEVYLTEKADSVWLISSVRGATRVRRINDTKLPRPDNESEIRELIEAALTAL”, the “soluble on expression in E. coli” value is reported as “not soluble”. With “MGSDKIHHHHHHLEISLNEIIDYYAKADVSFVGAFGERVSPQLKVLDRHTNPAGGGLVIPFSGSACFTFDGKPYVIEPGMVVHAGPGMRLSKEVIGDREWEYAVIHYHIPQHERDEYPLFHKDFSLAHGRSAKVPHLVRQILDIQSIPGAAAKFQTKVLFLSLLQEIFTAACGQPGQENSKLIEEAMGYIRLNYADELTVQKVADEFSVERRQFSYLFKRHTGMSPIHYLIECRISKAKELLGSPGCSVKQVAEWVGYTDSLYFSKAFKKYTGVSPSEYREGFAL” the “soluble on expression in E. coli” value was “not soluble”. In the case of “MSLDSPFGPEDDICILHFNDVYNIEEDVNGTGGVARFVEALKSFRSLNPLLLFSGDVFNPSIMSVTTKGRHMVPFLNMMRVHTACFGNHDFDFGVDHLEYLAGSCNFQWILSNVYDAYTGEPLANARTYRLFEWQGRRIGIMGLVEKDWLKTLPTISEEDVIYKDFVEEANRISKILREKDAELIIALTHMRAPNDELLAKGADDIDLILGGHDHEYYGVKEIGNSVVAKSGTDFRDLTMIVIKPGKHCLVCPNSDSKLHLESCRYSSFSLDQPQNIYEERLIPNNKDGGDIYLREGHHHHHH”, the “soluble on expression in E. coli” value is reported as “soluble”.
